Test results reported in the RNAGym collection of RNA variant scans (doi:10.7554/elife.80360).

B1: Hairpin Ribozyme (parent)
chain: GUCCUCUUUCACGUGCGCGUGAAAGAGAGAAGUGAACCAGAGAAACACACGUUGUGGUAUAUUACCUGGUA

Variants of: B1
Assay: self-cleavage, relative activity (ratio to wild type); higher = more cleavage; co-transcriptional

| Variant | self-cleavage |
| --- | --- |
| C12A G21A | 0.767 |
| G13C C48A | 0.16 |
| C12A C50G | 0.389 |
| C12A C50A | 0.231 |
| G13C U58G | 0.398 |
| C12G U14G | 0.684 |
| C12G U14A | 0.629 |
| G13U G32U | 0.157 |
| C12U U14A | 0.73 |
| C12U U14G | 0.602 |
| G13U G34A | 1.1 |
| G13U G34U | 1.12 |
| G13U G34C | 0.998 |
| C12A C65G | 0.282 |
| G13A A28G | 1 |
| C12G A49G | 0.462 |
| G13C G56C | 0.17 |
| G13C G56U | 0.202 |
| C12A G27C | 0.0872 |
| C12G U20A | 0.795 |
| G13C A30C | 0.112 |
| G13C G25C | 0.356 |
| G13A A31U | 0.202 |
| C12U C48G | 0.185 |

| Variant | self-cleavage |
| --- | --- |
| C12A G32A | 0.178 |
| C12A G32U | 0.114 |
| C12G A47U | 0.183 |
| C12G A47G | 0.076 |
| C12U U67G | 0.286 |
| C12U U67A | 0.348 |
| G13A A64G | 0.526 |
| G13C A31U | 0.0909 |
| G13U A23U | 0.709 |
| C12G A26C | 0.555 |
| C12G A26U | 0.696 |
| C12U A71U | 0.656 |
| C12U A71C | 1.31 |
| C12G C48A | 0.128 |
| G13A G21C | 0.862 |
| G13A G21A | 0.594 |
| C12G U33G | 0.0897 |
| C12G U33C | 0.246 |
| C12A G40C | 0.15 |
| C12A G40U | 0.186 |
| C12A U33C | 0.166 |
| G13U C16A | 0.558 |
| C12G A61U | 0.217 |
| C12G A61G | 0.154 |

| Variant | self-cleavage |
| --- | --- |
| C12G A59G | 0.18 |
| G13C A35C | 0.717 |
| G13A C37G | 0.174 |
| G13A C37U | 0.637 |
| C12A G13A | 0.635 |
| C12A G13C | 0.927 |
| G13U G57A | 0.123 |
| G13A G29A | 0.167 |
| G13A G29C | 0.153 |
| G13U C66U | 0.502 |
| C12G U52C | 0.899 |
| C12A G68U | 0.251 |
| C12A G68C | 0.241 |
| C12A G68A | 0.262 |
| G13A A45U | 0.0732 |
| G13A A45C | 0.135 |
| C12U G51A | 1.01 |
| C12U G51U | 0.872 |
| C12U G51C | 0.809 |
| G13U A28C | 0.34 |
| G13U A35G | 0.709 |
| G13U A35C | 0.876 |
| G13U G68A | 0.207 |
| G13C U53C | 0.535 |

| Variant | self-cleavage |
| --- | --- |
| C12G A35G | 0.874 |
| C12A A43U | 0.131 |
| G13C U60C | 0.912 |
| C12A U14A | 0.611 |
| C12A U14C | 0.71 |
| C12A U14G | 0.566 |
| C12U G25C | 0.511 |
| C12U G25U | 0.52 |
| C12U C16G | 0.78 |
| C12U C16A | 0.735 |
| C12G G15C | 0.756 |
| C12G G15U | 0.906 |
| G13C A22C | 0.591 |
| C12U A64C | 0.148 |
| G13C A24G | 0.537 |
| G13U G54C | 0.293 |
| G13U A24C | 0.563 |
| G13U A24U | 0.595 |
| G13C U33C | 0.296 |
| C12U C46A | 0.177 |
| C12U C46G | 0.142 |
| G13A A61C | 0.223 |
| G13A A61G | 0.196 |
| C12A U58G | 0.708 |

| Variant | self-cleavage |
| --- | --- |
| G13U A36U | 0.47 |
| C12G U55A | 0.25 |
| G13C U62C | 0.147 |
| G13A C38U | 0.396 |
| G13A G25C | 0.36 |
| G13C G68U | 0.193 |
| C12G A41C | 1.21 |
| G13A G42C | 0.302 |
| G13A G42U | 0.234 |
| C12G G21U | 0.663 |
| G13U C48U | 0.125 |
| G13U C48A | 0.0958 |
| G13C A59U | 0.132 |
| G13C G69U | 0.217 |
| C12A A45U | 0.132 |
| C12A A45G | 0.177 |
| C12U G32C | 0.134 |
| G13U A49U | 0.169 |
| C12G G57U | 0.322 |
| C12G C18U | 0.889 |
| C12G C18A | 0.926 |
| C12G C18G | 0.727 |
| C12A A61C | 0.239 |
| C12A A61U | 0.169 |

| Variant | self-cleavage |
| --- | --- |
| G13C A49U | 0.199 |
| G13C A49C | 0.115 |
| G13C A49G | 0.424 |
| G13C C46G | 0.164 |
| G13U A31C | 0.133 |
| G13C G42C | 0.3 |
| G13C G42U | 0.201 |
| C12G A64G | 0.466 |
| C12A C46U | 0.119 |
| C12A C46A | 0.202 |
| C12U A47C | 0.221 |
| G13C U70G | 0.502 |
| C12A G56A | 0.182 |
| G13U C46U | 0.137 |
| G13U C46G | 0.121 |
| C12G G42C | 0.351 |
| C12G U53G | 0.562 |
| C12G U53C | 0.919 |
| C12G U53A | 0.911 |
| C12G G29C | 0.13 |
| C12G G29U | 0.234 |
| G13A U53C | 0.645 |
| G13A A39U | 0.32 |
| G13A A39C | 0.446 |

| Variant | self-cleavage |
| --- | --- |
| G13A U20A | 0.716 |
| G13A U20G | 0.723 |
| G13A C66G | 0.16 |
| C12A G42U | 0.301 |
| C12A G42C | 0.272 |
| G13C A71C | 1.22 |
| G13C C18G | 0.807 |
| G13C C18U | 0.817 |
| C12U A49G | 0.564 |
| G13C C65U | 0.243 |
| C12U G40C | 0.194 |
| C12U G40A | 0.358 |
| C12U C37U | 0.504 |
| C12U U63C | 0.0427 |
| G13U A61G | 0.147 |
| G13U A61C | 0.173 |
| C12U A59C | 0.149 |
| C12G C46U | 0.191 |
| G13C G17A | 0.839 |
| G13C G17C | 0.368 |
| C12A U55G | 0.406 |
| C12A C38G | 0.187 |
| C12A C38U | 0.482 |
